Measured values as given in paper PMC11831497.

Key:
Details in all cases: glycan lost; control: CTSD WT
[1] = western blot at equal CTSD expression, SW480
[2] = immunofluorescence co-localisation with EEA1, Rab7, LAMP1, SW480
[3] = CTSD secretion from CRC cells
[4] = cycloheximide chase, western blot
[5] = fluorogenic Cathepsin D activity kit, cell lysate
western blot = assay: western blot

For Cathepsin D (CTSD): N263Q, the “other: cellular level of substrate ACADM” value [1] was “increases”, the localisation_or_trafficking [2] was “abolishes” and the expression_or_secretion [3] was “decreases”. The degradation_or_half_life [4] was “decreases”, the enzymatic_activity [5] was “decreases” and the “other: ferroptosis protein levels (SLC7A11, GPX4)” value (western blot) was “decreases”.

In the case of Cathepsin D (CTSD): N263Q/N134Q, the localisation_or_trafficking [2] is reported as “abolishes”, the expression_or_secretion [3] is reported as “increases” and the enzymatic_activity [5] is reported as “decreases”.
